From publication PMC4222529 (Biochemistry, 2014)
No end group written: not given here. *: point of attachment. 5FAM = O=C1OC2(c3ccc(O)cc3Oc3cc(O)ccc32)c2ccc(C(=O)*)cc21

B1: NEMOwDcc (designed binder)
chain: GSWSVKELEDKNEELLSEIAHLKNEVARLKKLLQRCLEENQELRDAIRQSNQILRERCEELLHFQASQREEKEFLMCKFQEARKLVERLGLEKLELEDKNEELLSEIAHLKNEVARLKKLVGER
B2: NEMOw (domain or fragment)
chain: GSWEQGAPETLQRCLEENQELRDAIRQSNQILRERCEELLHFQASQREEKEFLMCKFQEARKLVERLGLEKL
B3: 5′FAM-IKKβ_(KK/RR) (peptide, UniProt O14920 701-745, looked up)
chain: 5FAM-PARRSEELVAEAHNLCTLLENAIQDTVREQDQSFTALDWSWLQTE
modifications: not fully specified

How the values were obtained:
NEMOwCcc = NEMOwCcc (UniProt Q9Y6K9); assay: non-reducing SDS-PAGE
5′FAM-IKKβ_(KK/RR) [1] = target: 5′FAM-IKKβ_(KK/RR) (UniProt O14920); assay: fluorescence polarisation
NEMOwNcc = NEMOwNcc (UniProt Q9Y6K9); assay: non-reducing SDS-PAGE
5′FAM-IKKβ_(KK/RR) [2] = target: B3; assay: fluorescence polarisation
non-reducing SDS-PAGE = target: the molecule itself; assay: non-reducing SDS-PAGE
GST-NEMO(1–196) [3] = target: T1, GST-NEMO(1–196) (UniProt Q9Y6K9 1-196); assay: fluorescence polarisation
NEMOw = target: B2; assay: fluorescence polarisation
GST-NEMO(1–196) [4] = target: T1, GST-NEMO(1–196); assay: fluorescence polarisation; remark: listed apart in the source

Molecule: NEMOwCcc (from UniProt Q9Y6K9 44-112) (designed binder)
- stoichiometry N (NEMOwCcc): 2
- Kd (5′FAM-IKKβ_(KK/RR) [1]): 150 nM

Molecule: NEMOwNcc (from UniProt Q9Y6K9 51-112) (designed binder)
- stoichiometry N (NEMOwNcc): 2
- Kd (5′FAM-IKKβ_(KK/RR) [1]): 980 nM

Molecule: B1
- Kd (5′FAM-IKKβ_(KK/RR) [2]): 114 ± 3 nM

Molecule: B2
- stoichiometry N (non-reducing SDS-PAGE): 2

Molecule: PARRSEELVAEAHNLCTLLENAIQDTVREQDQSFTALDWSWLQTE (peptide, UniProt O14920 701-745, looked up) [IKKβ_(KK/RR)]
- IC50 (GST-NEMO(1–196) [3]): 167 ± 3 nM

Molecule: B3
- Kd (NEMOw): ~10 µM
- Kd (GST-NEMO(1–196) [4]): 168 ± 4 nM
